Data taken from PMC2292230.
Like-named read-outs stand apart in the source and are kept apart here.

Assays:
Test in all cases: SPR
[1] = biological target: mouse CD1d loaded with α-GalCer (mouse) (UniProt P11609)
[2] = biological target: human CD1d loaded with α-GalCer, wild type (human) (UniProt P15813)
[3] = biological target: human CD1d Met87 to Ala mutant loaded with α-GalCer (human)
[4] = biological target: human CD1d Arg79 to Ala mutant loaded with α-GalCer (human)
[5] = biological target: human CD1d Lys86 to Ala mutant loaded with α-GalCer (human)
[6] = biological target: human CD1d Gln150 to Ala mutant loaded with α-GalCer (human)
[7] = biological target: human CD1d loaded with α-GalCer, wild type (human) (UniProt P15813); remark: listed apart in the source
[8] = biological target: human CD1d Val147 to Ala mutant loaded with α-GalCer (human)

Sequence of UniProt P11609 (P11609 22-336): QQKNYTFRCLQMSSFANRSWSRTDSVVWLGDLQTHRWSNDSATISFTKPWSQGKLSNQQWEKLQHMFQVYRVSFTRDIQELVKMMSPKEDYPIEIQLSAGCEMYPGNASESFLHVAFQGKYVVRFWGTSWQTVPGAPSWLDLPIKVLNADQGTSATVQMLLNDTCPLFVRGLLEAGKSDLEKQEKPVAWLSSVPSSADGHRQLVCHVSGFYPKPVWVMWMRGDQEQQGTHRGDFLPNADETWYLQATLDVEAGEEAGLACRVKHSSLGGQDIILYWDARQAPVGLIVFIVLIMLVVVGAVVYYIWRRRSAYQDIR
Sequence of UniProt P15813 (P15813 20-301): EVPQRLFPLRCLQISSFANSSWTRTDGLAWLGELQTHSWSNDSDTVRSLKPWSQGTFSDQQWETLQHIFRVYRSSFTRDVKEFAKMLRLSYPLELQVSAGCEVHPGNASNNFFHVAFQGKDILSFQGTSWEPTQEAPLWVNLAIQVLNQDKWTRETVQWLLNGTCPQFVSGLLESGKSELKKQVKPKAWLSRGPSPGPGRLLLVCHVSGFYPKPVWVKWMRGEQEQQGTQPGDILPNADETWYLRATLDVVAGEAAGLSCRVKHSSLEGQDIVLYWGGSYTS

| Substance | Kd [1] [nM] | Kd [2] [nM] | further results |
| --- | --- | --- | --- |
| human NKT TCR (NKT15), wild type | 940 | 460 | Kd [3]: 7900 nM; Kd [4]: 350 nM; Kd [5]: 2830 nM; Kd [6]: 2500 nM; Kd [7]: 580 nM; Kd [8]: 3600 nM |
| human NKT TCR (NKT15) Asn53β to Ala mutant | 1190 | 730 |  |
| human NKT TCR (NKT15) Tyr103βAla mutant | 820 | 710 |  |
| human NKT TCR (NKT15) Gly96αAla mutant | 1190 | 1070 |  |
| human NKT TCR (NKT15) Arg103α to Ala mutant | 2560 |  |  |

More lines, in order of falling Kd [1], values ahead:

| Kd [1] [nM] | Kd [2] [nM] | Substance | further results |
| --- | --- | --- | --- |
| 4750 | 5440 | human NKT TCR (NKT15) Pro28αAla mutant |  |
| 1160 |  | human NKT TCR (NKT15) Ser30αAla mutant |  |
| 720 |  | human NKT TCR (NKT15) Glu56β to Ala mutant |  |
